Target: Fc-conjugated human angiotensin converting enzyme 2 (ACE2-Fc) (human, UniProt Q9BYF1)
Assay: ELISA

Chain of Fc-conjugated human angiotensin converting enzyme 2 (ACE2-Fc) (Q9BYF1 18-740): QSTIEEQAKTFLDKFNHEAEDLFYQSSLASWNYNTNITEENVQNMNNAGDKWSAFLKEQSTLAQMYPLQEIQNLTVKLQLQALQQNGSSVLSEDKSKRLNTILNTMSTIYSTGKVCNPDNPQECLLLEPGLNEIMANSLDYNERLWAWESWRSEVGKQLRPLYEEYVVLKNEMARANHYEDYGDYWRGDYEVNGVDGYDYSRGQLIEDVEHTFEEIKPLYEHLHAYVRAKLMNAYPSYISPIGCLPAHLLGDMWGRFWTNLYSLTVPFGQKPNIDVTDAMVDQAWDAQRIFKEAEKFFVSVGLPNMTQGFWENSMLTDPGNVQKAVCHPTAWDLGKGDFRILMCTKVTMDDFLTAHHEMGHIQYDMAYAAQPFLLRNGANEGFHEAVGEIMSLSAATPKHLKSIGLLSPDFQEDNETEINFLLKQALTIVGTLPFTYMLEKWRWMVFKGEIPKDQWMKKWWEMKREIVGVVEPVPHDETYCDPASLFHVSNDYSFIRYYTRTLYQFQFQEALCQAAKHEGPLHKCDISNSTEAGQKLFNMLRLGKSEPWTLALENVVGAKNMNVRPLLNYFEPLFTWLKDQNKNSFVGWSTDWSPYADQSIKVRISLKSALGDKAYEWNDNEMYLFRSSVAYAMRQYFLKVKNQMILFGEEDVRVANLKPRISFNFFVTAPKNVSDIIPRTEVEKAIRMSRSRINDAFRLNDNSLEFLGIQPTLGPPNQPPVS

B1: SARS-CoV spike protein S1+S2, His-tagged (domain or fragment)
chain: not shown
**Q.** With B1 as the binder, how does the EC50 read?
**A.** Its EC50 is 0.0139 µM.
